# pKd: −log10 of the molar value.
# Key:
# Assay in all cases: fluorescence polarization
# Details in all cases: FP: 50 mM Tris/HCl pH 8.0, 150 mM NaCl, 1 mM TCEP, 0.1 mg/ml BSA, 0.5 nM DNA, RT 10 min, EMSA: 10 mM HEPES pH 7.5, 100 mM KCl, 5 mM MgSO4, 5% glycerol
# [1] = system: His6::AvrBs3 (Xanthomonas campestris pv. vesicatoria)
# [2] = system: His6::AvrBs3ΔN152 (Xanthomonas campestris pv. vesicatoria)
# [3] = system: His6::AvrBs3ΔN152-C16 (Xanthomonas campestris pv. vesicatoria)
substance,measurement,setting,value
E1U20 36-bp UPA20 promoter fragment (fluorescein),pKd,[1],7.63
same,pKd,[2],7.00
same,pKd,[3],6.55
